Experimental data: patent US20040220384A1 (Takeda / Millennium, published 2004)
Non-standard residues stand in square brackets, D forms with d. No end group written: not given here. Trp(6-Br) = N[C@@H](Cc1c[nH]c2cc(Br)ccc12)C(=O)O; dTrp(6-Br) = N[C@H](Cc1c[nH]c2cc(Br)ccc12)C(=O)O

T1: human GPR7 (human, UniProt P48145 1-328)
T1 sequence: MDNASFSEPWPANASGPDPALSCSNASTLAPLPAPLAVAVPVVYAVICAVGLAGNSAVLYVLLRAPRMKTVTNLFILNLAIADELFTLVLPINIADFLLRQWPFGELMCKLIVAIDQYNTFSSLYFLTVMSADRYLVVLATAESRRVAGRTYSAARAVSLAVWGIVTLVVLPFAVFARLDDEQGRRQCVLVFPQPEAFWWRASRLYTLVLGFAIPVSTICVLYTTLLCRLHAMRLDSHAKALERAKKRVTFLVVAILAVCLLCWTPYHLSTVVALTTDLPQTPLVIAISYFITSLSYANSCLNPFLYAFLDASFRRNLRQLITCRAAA

T2: bovine GPR7 (bovine, UniProt Q8MJV3 1-331)
T2 sequence: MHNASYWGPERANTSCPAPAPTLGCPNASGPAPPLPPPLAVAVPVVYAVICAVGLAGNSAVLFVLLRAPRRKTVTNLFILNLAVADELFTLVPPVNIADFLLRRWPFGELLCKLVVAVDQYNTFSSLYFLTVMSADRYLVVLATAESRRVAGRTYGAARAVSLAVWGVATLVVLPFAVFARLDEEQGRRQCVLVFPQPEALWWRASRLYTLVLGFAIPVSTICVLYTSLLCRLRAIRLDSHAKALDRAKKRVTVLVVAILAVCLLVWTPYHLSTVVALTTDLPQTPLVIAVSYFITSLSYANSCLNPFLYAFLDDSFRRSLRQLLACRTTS

T3: bovine GPR8 (bovine, UniProt Q8MJV2 1-336)
T3 sequence: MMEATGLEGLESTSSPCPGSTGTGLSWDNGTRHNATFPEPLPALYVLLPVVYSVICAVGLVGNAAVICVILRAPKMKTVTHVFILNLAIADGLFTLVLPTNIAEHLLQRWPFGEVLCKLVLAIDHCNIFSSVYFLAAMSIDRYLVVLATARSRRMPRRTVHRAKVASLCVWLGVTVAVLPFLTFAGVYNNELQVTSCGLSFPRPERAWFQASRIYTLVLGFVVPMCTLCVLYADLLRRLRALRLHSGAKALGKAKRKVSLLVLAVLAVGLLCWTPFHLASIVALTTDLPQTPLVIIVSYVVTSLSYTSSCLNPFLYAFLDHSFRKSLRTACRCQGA

T4: rat GPR7 (rat TGR26) (rat, UniProt Q56UD9 1-329)
T4 sequence: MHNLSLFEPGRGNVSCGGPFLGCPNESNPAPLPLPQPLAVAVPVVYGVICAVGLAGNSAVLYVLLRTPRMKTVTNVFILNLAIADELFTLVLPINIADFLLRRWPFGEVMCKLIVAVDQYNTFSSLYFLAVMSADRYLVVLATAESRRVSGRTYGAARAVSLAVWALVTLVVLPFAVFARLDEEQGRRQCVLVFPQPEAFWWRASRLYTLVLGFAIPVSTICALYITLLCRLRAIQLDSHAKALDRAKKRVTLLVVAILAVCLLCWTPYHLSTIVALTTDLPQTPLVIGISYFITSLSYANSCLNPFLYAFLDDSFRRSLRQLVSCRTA

B1: Trp1-bovine GPR7L(29) (peptide)
peptide: WYKPTAGQGYYSVGRAAGLLSGFHRSPYA
notes: also called bovine GPR7 ligand B; non-brominated GPR7L

Tests used:
human GPR7 [1] = target: T1, human GPR7; assay: cell-based or functional assay
human GPR8 = human GPR8 (human, UniProt P48146 1-333); assay: cell-based or functional assay
human GPR8, sequence (P48146 whole entry): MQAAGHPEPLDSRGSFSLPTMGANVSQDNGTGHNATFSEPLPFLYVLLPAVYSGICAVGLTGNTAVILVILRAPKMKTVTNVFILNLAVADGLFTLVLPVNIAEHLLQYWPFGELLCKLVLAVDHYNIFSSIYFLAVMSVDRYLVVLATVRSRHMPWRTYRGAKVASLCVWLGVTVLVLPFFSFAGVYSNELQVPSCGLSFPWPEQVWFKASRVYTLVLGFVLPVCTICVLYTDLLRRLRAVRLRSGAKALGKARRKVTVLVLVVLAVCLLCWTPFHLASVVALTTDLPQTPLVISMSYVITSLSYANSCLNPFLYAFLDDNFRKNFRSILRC

bovine GPR7 = target: T2, bovine GPR7; assay: cell-based or functional assay
bovine GPR8 = target: T3, bovine GPR8; assay: cell-based or functional assay
rat GPR7 (rat TGR26) = target: T4, rat GPR7 (rat TGR26); assay: cell-based or functional assay
human GPR7 [2] = target: T1, human GPR7; assay: binding inhibition of iodine-labeled hGPR7L-23 on human GPR7-expressed CHO cell membrane fraction
Procedure: The peptides shown in TABLE 3 are those obtained by diluting the stock solution of […] or 10⁻³ M with the assay buffer in 10⁻⁵ M, 10⁻⁶ M, 10⁻⁷ M, 10⁻⁸ M, 10⁻⁹ M, 10⁻¹⁰ M and 10⁻¹¹ M. As NBS, hGPR7L-23 was prepared in a final concentration of 10⁻⁵ M. The sample solution and NSB prepared were dispensed on a polypropylene-made 96-well plate, the assay buffer was dispensed thereto to make the total volume 50 μl, and 25 μl of the iodine-labeled product dilution was added thereto. After agitation, 25 μl of the solution of human GPR7-expressed CHO cell membrane fraction were dispensed thereto and agitated, followed by incubation at room temperature for 1.5 hour. Using a cell harvester for the 96-well plate, the culture medium was adsorbed onto a filter unit, which had previously been wetted with an assay buffer (50 mM Tris-HCl, pH7.5). After washing 5 times with the assay buffer, the filter unit was thoroughly dried. After 50 μl of a liquid scintillator was dispensed thereto, the radioactivity was counted on a Top Count (Packard) and the data was analyzed in triplet (FIG. 33).

Binder | IC50 of intracellular cAMP production suppression (cAMP production inhibition rate) (human GPR7 [1]) [nM] | IC50 of intracellular cAMP production suppression (cAMP production inhibition rate) (human GPR8) [nM] | IC50 of intracellular cAMP production suppression (cAMP production inhibition rate) (bovine GPR7) [nM] | IC50 of intracellular cAMP production suppression (cAMP production inhibition rate) (bovine GPR8) [nM] | IC50 of intracellular cAMP production suppression (cAMP production inhibition rate) (rat GPR7 (rat TGR26)) [nM] | IC50 (human GPR7 [2]) [nM]
[Trp(6-Br)]YKPTAGQGYYSVGRAAGLLSGFHRSPYA [LTrp(6Br)1-bovine GPR7L(29)] | 0.58 | 9.7 | 1.9 | 4 | 0.21 | 0.34
[Trp(6-Br)]YKPAAGHSSYSVGRAAGLLSGLRRSPYA [LTrp(6Br)1-human GPR7L(29)] | 0.44 | 32 | 1.8 | 51 | 0.47 | 0.32
B1 | 0.43 | 8.1 | 1.2 | 5.4 | 0.25 | 0.31
WYKPAAGSHHYSVGRAAGLLSSFHRFPST (also called rat GPR7 ligand B) [Trp1-rat GPR7L(29)] | 0.86 | 8.8 | 1.2 | 14 | 0.3 | 0.34
WYKPAAGSHHYSVGRAAGLLSSFH (also called rat GPR7 ligand A) [Trp1-rat GPR7L(24)] | 0.31 | 2.8 | 0.51 | 3.5 | 0.18 | 0.3
[dTrp(6-Br)]YKPAAGHSSYSVGRAAGLLSGLRRSPYA [DTrp(6Br)1-human GPR7L(29)] | 106 | 770 | 360 | 424 | 49 | 13
WYKPAAGHSSYSVGRAAGLLSGL [Trp1-human GPR7L(23)] | 0.58 | – | – | – | – | –
[dTrp(6-Br)]YKPTAGQGYYSVGRAAGLLSGFHRSPYA [DTrp(6Br)1-bovine GPR7L(29)] | 35 | 198 | 77 | 34 | 2.5 | 6.1
